Assay: yeast display, Sf9 membrane polyspecificity reagent, FACS + sequencing; frameworks hold sequencing errors
How it was run: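 A synthetic nanobody library was expressed on Saccharomyces cerevisiae BJ5465 by galactose induction for 36–48 hours. The library was stained for 1 hour at 4 °C with 10% biotinylated, detergent-solubilized Sf9 membrane reagent and enriched with streptavidin microbeads before FACS. Low and high (top ~1%) gates were set on anti-HA fluorescence for expression and streptavidin fluorescence for reagent binding, and each polyreactivity label reflects the gate of origin.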

QVQLVESGGVLVQSGGSLRLSCAASGLIFTWNAMGWYRQAPGKERELVAPISTGGSTSYADSVKGRFTISRDNAKNTVYLQMNSLKPEDTAVYYCARDSSIWSHGSWYDYWGQGTHVTVSS
polyreactivity (PSR sort gate): low polyreactivity

QVQLVESGGGLVQAGGSLRISCAASGGIFRYVMGWYRQAPGKERELVATISGRGGSTYYADSVKGRFTISRDNAKNTVYLQMNSLKPEDTAVYYCATHSWRRAGYEYWGQGTQVTVSS
polyreactivity (PSR sort gate): high polyreactivity

QVQLVESGGGLVQAGGSLRLSCAASGSTLWTYAMGWYRQAPGKERELVAAISGGGGSTYYADSVKGRFTISRDNAKNTVYLQMNSLKPEDTAVYYCAAVTWVGWGQRRRDYWGHGTQVTVSS
polyreactivity (PSR sort gate): high polyreactivity

QVQLVESGGGLVQAGGSLRLSCAASGSIFKSYAMGWYRKAPGKERELVAAITWRSGRTYYADSLKGRFTISRDNAKNTVYLQMNSLKPEDTAVYYCAAELVSVRYLYALHDRDYWGKGTQVTVSS
polyreactivity (PSR sort gate): low polyreactivity

QVQLVESGRGLVQAGGSLRLSCAASGIIFYENAMGWYRQAPGKERELVADITQSGGSTYYADSVKGRFTISRDNAKNTVYLQMNSLKPEDTGVYYCAADGYDPYGGLYDYWGQGNQVTVSS
polyreactivity (PSR sort gate): low polyreactivity

QVQLVESGGGLVQAGGSLRLSCAASGFTLADNTMGWYRQAPGKERELVATISGSGSTYYADSVKGRFTISRDNAKNTVYLQMNSLKPEDTAVYYCAAVDTGTEKDLLRLGNGGYDYWGQGTQVTVSS
polyreactivity (PSR sort gate): low polyreactivity

QVQLVESGGGLVQAGGSLRLSCAASGFNFPRYTMGWSRKAPGKEREFVAGITLRGGSTYYADSVKGRFTISRANAKNTVYLQMNSLKPDETAVYYCARVISRGRSFGIGYDYWGQATQVTVSS
polyreactivity (PSR sort gate): low polyreactivity

QVQLVESGGGLVQAGGSLRLSCAASGRIFAFYAMGWYRQAPGKERELVAAISWSGGSTYFADSVKGRFTISRDNAKNTVYLQMHSLIPEDTAVYYCAAYRTRGSAYPYDYWGQGTQVTVSS
polyreactivity (PSR sort gate): high polyreactivity

QVQLVESGGGLVQAGGSLRLSSAASGSIFGANAIGWYRQAPGKERELVAAISRRGRSTYYADSVKGRFTISRDNAKYTVYLQLNSLKPEDTAVYYSAAKRPQYYVQYGYWGQGTQVTVSS
polyreactivity (PSR sort gate): high polyreactivity

QVQLVESGGGLVQAGGSLRLSCAASGFTFSSYAMGWYRQAPGKERELDAAITRNGGSTYYADSVKGRFTISRDNAKNTDYLQMNSLNPEYTAVYNCAAQYPRQRYGYYWPYYKYYYWGHGTQVTVSS
polyreactivity (PSR sort gate): high polyreactivity

QVQLVESGGGLVQAGGSLRLSCAASGSTFGDYAMGWYRQAPGKERELVAAMSRGGSTYYADSVKGRFTISRDNAKNTVYLQMNSLKPEDTAVYYCNKDEGYSASPDGSTFDYWGQGTQVTVSS
polyreactivity (PSR sort gate): low polyreactivity

QVQLVESGGGLVQAGGSLRLNCAASGNIFISYAMGWYRQAPGKERELVAAISRSGGSTYYADSVKGRFTISRDYAKNTVYLQMNSLKPEDTAVYYCAAYIGPGRYGSWGQGTQVTVSS
polyreactivity (PSR sort gate): high polyreactivity

QVQLVESCGGLLQAGGSLPLSCPASGSISSYYAMGWYRQAPGKERELVASITSGASTNYADSVKGRFTISRDNAKNTVYLQMNSLKPEDTAVYYCAAYVVTYYYGTGYYSYDYWGQGSQVTVSS
polyreactivity (PSR sort gate): low polyreactivity

QVQLVESGGGLVQAGGSLRLSCASSGRIFWRNAMGWYRQAPGKERELVAAITSGGRTNYADSVKGRFTISRDNAKNPVYLQMNSLKPEDTAVYYCNALWRGRYGYWGQGTQVTVSS
polyreactivity (PSR sort gate): high polyreactivity

QVQLQESVGGLVQAGGSLRLSCAASGTISPQPAMGWYRPAPGKEREFVAGIDTGAITNYADSVKGRFTISRDNAKNTVYLQMNSLKPEDTAVYYCAVFPAAYDYYERYYTYWGLGTQVTVSS
polyreactivity (PSR sort gate): low polyreactivity

QVQLEESGGGLVQAGGSLRLSCAASGRIFYGYAMGWSRQAPGKERELVASISRRGSSTYYADSVKGRFTISRDNAKNTVYLQMNSLKPEDTAVYYCAAGYYPFNYWGQGTQVTVSS
polyreactivity (PSR sort gate): high polyreactivity

QVQLEESGGCLVQAGGSLRLSCAASGRIITSNDMGWYRQAPGKERELVAAISKSGGRTYYADSVKGRFTISRDNAKNTVYLQMNSLKPEDTAVYYCAKDNYWGQGTQVTVSS
polyreactivity (PSR sort gate): high polyreactivity

QVQLVESGGGLVQAGGSLRLSCAASGSIFSPYTMGWYRQAPGKERELVAAMSASGGSTYYADSVKGRFTISRDNAKNTVYLQMNSLKPEDTAVYYCNVYRITRHSYNCGFDYWGQGTQVTVSS
polyreactivity (PSR sort gate): low polyreactivity

QVQLVESGGGLVQAGGSLRLSCAASGSTFSGYTMGWYRQAPGKERELVASISSGVSTYYADSVKGRFTISRDNAKNTVYLQMNSLKPEDTAVYYCAADSVGDYGYQVYASWGYEDEYWGQGTQVTVSS
polyreactivity (PSR sort gate): low polyreactivity

QVQLVESGGGLVQAGGSLRLSCAASGITFKLNAMGWYRQAPGKERELVAAISYNGVRTYYADSVKGRFTISRDNAKNTVYLQMNRLKPEDTAVYYCAALLRGQDRTMDYWGQGTQVTVSS
polyreactivity (PSR sort gate): high polyreactivity

QVQLVESGGGVVQAGGSLRLSCAASGGIILEYVMGWYRQARGEERELVAAISWSGTSTYYADSVKGRFTISRDNAKNTVYLQMNSLKPEDTAVYYCAKSEGVYSGWYGVDDYDYWGQGTQVTVSS
polyreactivity (PSR sort gate): low polyreactivity

QVQLVESGGGLVQAGGSLRLSCAASGYTSRSNAMGWYRQAPGKERELVAAIRGGGNTKYADSVKWRFTISRDNANNTVYLQMNSLKPEDTAVYYCAVVTGSFRTRYTYYYWGQGTQVTVSS
polyreactivity (PSR sort gate): high polyreactivity

QVQLVESGGGLVQAGGSLRLSCAASGTTSPNAMGWYRQAPGKERELVAAMWSGGTYYADSVKGRFTISRDNAKNTVYLQMNSLKPEDTAVYYCAADGEFRRAWYEGDYWGQGTQVTVSS
polyreactivity (PSR sort gate): low polyreactivity

QVQLVESGGGLVQAGGSLRLSCAASGSTFVGYAMGWYRQAPGKEREFVAAITRGGSTNYADSVKGRFTISRDNAKNTVYLQMNSLKPEDTAVYYCAARDRREGFNFDYWGQGTQVTVSS
polyreactivity (PSR sort gate): low polyreactivity

QVQLVESGGGLVQAVGSLRLSCAACGSIFYWNALGWYRQAPGKEREFVASIRKSGGSTNYADSVKGRFTISRDNAMNTVYLQMNSMKPEDSAVYDCAAYSYYRGPIYDYWGQGTQVTVSS
polyreactivity (PSR sort gate): low polyreactivity

QVQLVESGGGLVQAGGSLRLSCAASGSTFRRYAMGWYRQAPGKERELVAAITGSGGRTYYADSVKGRFTISRDNAKNTVYLQMNSLKPEDTAVYYCAKDSYTRPRGYDYWGQGTQVTVSS
polyreactivity (PSR sort gate): high polyreactivity

QVQLVESGGGLVQAGGSLRLSCAASGSIFDFYAMGWYRQAPGKVRELVAAITSGSNTYYADSVKGRFTISRDNAKNTVYLQMNSLKPEDTAVYYCAARRRIYRSMGYWGQGTQVTVSS
polyreactivity (PSR sort gate): low polyreactivity

QVQLVESGGGLVQAGGRLRLSCAASGRIFVAYVMGWYRQAPGKERELVAAITRGVRTYYADSVKGRFTISRDNAKNTVYLQMNSLKPEDTAVYYCAARGISAFSQDYEYYYWGQGTQVTVSS
polyreactivity (PSR sort gate): high polyreactivity

QVQLVESGGGLVQAGGSLRLSCAASGFIFIYYAMGWYRQAPGKERELVAGITSGGSTNYADSVKGRFTISRDNAKNTVYLQMNSLKPEDTAVYYCAAGSSARWYPRYNYWGQGTQVTVSS
polyreactivity (PSR sort gate): high polyreactivity

QVQLVESGGGLVQAGGSLRLSCAASGGTFKTNAMGWYRQAPGKERELVAAITGSGTSTYYADSVKGRFTISRDNAKYTVYLQMNSLKPEDTAVYYCAADKLYQPGIGDDYWGQGTQVTVSS
polyreactivity (PSR sort gate): low polyreactivity

HGQLVESGGGLVQAGGSLRLSCAASGSHLSNYAMGWYREAPGKERELVAAISLSVGSTYYADSVKGRFTISRDNAKNTVYLQMNSLKPEDTAVYYCAADDFYSGPFRGDYWGQGTQVTVSS
polyreactivity (PSR sort gate): low polyreactivity

QDQLVESGGGLVQARGTLRLSCAASGRTFYQNAMGWYRHAPGKEREFVGAITGGTGSTHYADSVKGRFTISRDNAKNTVFLQMNSLKPEDTAVYYCATRYLLGFSRYDYCGQGTQVTVSS
polyreactivity (PSR sort gate): low polyreactivity

QVQLVESGGGLVQAGGSLRLSCAASGIIFRLNAMGWYRQAPGKVRELVAAIRRRGGSTYYADSVKGRFTISRDNAKNTVYLQMNSLKPEDTAVYYCAKDPHGSDFGYWGQGTQVTVSS
polyreactivity (PSR sort gate): low polyreactivity

QVQLVESGGCLVQAGGSLRLSCAASGSTIGVNAMGWYRQAPGKERELVAAISRGGGRTYYADSVKGRFTISRDNAKNTVYLQMNSLKPEDTAVYYCNTDFGARMGYCGQGTQVTVSS
polyreactivity (PSR sort gate): high polyreactivity

QVQLVESGGGLVQAGGSLRLSCAASGRTFRENAMGWYRQAPGKERELVAAAISSGDGTNYADSVKGRFTISRDNAKNTVYLQMNSLKPEDTAVYYCAADGPRDSYDYWGQGTQVTVSS
polyreactivity (PSR sort gate): low polyreactivity

QVQLVESGGGLVQAGGSLRLSCSASGSIFAIYTMGWYRQAPGTERELVAAISSRGDSTYYADSVKGRFTISRDNAKNTVYLQMNSLKPEDTAVYYCATRGDGVLGRRGYYWGQGTQVTVSS
polyreactivity (PSR sort gate): high polyreactivity

QVQLVESGGGLVQEGCSLRLSCAPSGIIFGVNAMGLYRQAPAKERELVAVITWSGGSTYYADSVKGRFTISRDNAKNTVYLQMNSLKPEDTAVYYCNADSSASTIDRQGEYYYLGQGTQVTVSS
polyreactivity (PSR sort gate): low polyreactivity

QVQLVESVGGLVQAGGSLRLSCAASGYTFYRYAMGWYRQAPGKESELVAGISRDGGSTYYADSVKGRFTISRDNAKNTVYLQMNSLKPEDTAVYYCAADKTRYRLGRDYWGQGTQVTVSS
polyreactivity (PSR sort gate): low polyreactivity

QVQLVESGGGLVQAGGSLRLSCAASGRLLGFNVMGWYRQAPGKERELVAAITTSGGSTYYADSVKGRFTISRDNAKNTVYLQMHSLKPEDTAVYYCAAVKVQITLLHGDDYWGQGTQVTVSS
polyreactivity (PSR sort gate): high polyreactivity

QVQLVESGAGLVHAGGSLRLSCAASGSIFEGYAMGWYRQAPGKERELVARITSDDDSTYYADSVKGRFTNSRDTAKNTVYLQMYSLKPEDTAVFYCNADYYWTTLAMDSWGQGTQVTVSS
polyreactivity (PSR sort gate): low polyreactivity

QVQLVESGGGLVQAGGSLRLRCAASGRIFARNAMGWYRQAPGKERELVAAISSRGSSTYYADSVKGRFTISRDNAKNTVYLQMNSLKPEDTAVYYCNAYYSVYPPGYDYWGQGTQVTVSS
polyreactivity (PSR sort gate): high polyreactivity

QVQLVESGGGLVQAGGSLRLSCAASGYIFPWYDMGWYRQAPGKERELVAAISWSGGSTYSADSVKGRFTISRDNAKNTVDLQMNSLKPEDTAVYYCAAYLSHYATRYGYWGHGTQVTVSS
polyreactivity (PSR sort gate): high polyreactivity

QVQLVESGGGLVQAGGSLRLSCAAYGSTFVWNTMGWYLQAPGKERELVAAINWSGTRTYYADSVKGRFTISRDNAKNTVYLQMNSLKPEDTAVYYCAAESYYPAGIRGYWGQGTQVTVSS
polyreactivity (PSR sort gate): high polyreactivity
